Experimental data published in patent US20220298218A1 (ANTAG THERAPEUTICS, published 2022).

T1: human GIP receptor (human, UniProt P48546 22-466)
T1 sequence (looked up): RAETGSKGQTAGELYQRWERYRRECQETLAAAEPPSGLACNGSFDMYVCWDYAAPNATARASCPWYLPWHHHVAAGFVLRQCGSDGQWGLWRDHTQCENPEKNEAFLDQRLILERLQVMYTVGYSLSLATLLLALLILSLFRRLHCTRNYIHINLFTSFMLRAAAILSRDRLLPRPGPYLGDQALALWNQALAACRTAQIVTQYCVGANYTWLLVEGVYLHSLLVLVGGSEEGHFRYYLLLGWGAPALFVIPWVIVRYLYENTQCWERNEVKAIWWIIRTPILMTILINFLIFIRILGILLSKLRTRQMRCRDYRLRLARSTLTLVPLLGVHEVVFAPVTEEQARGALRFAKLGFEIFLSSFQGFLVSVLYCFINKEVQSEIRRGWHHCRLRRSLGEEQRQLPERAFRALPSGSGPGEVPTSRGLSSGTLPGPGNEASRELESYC


Molecular target: T1, human GIP receptor
Test: cell-based or functional assay

Binder	cAMP antagonism [nM]	cAMP antagonism % inhib [%]	cAMP antagonism log [log M]
TFISDYKIAMDKIHQQDFVNWLLAQKGK (HELM PEPTIDE1{T.F.I.S.D.Y.K.I.A.M.D.K.I.H.Q.Q.D.F.V.N.W.L.L.A.Q.K.G.K}|PEPTIDE2{[O=C(O)CCCCCCCCCCCCCCC(=O)[*:2]].[gGlu]}$PEPTIDE1,PEPTIDE2,7:R3-2:R2$$$V2.0; N-terminus assumed; SMILES CC[C@H](C)[C@H](NC(=O)[C@H](CCCCNC(=O)CC[C@H](NC(=O)CCCCCCCCCCCCCCC(=O)O)C(=O)O)NC(=O)[C@H](Cc1ccc(O)cc1)NC(=O)[C@H](CC(=O)O)NC(=O)[C@H](CO)NC(=O)[C@@H](NC(=O)[C@H](Cc1ccccc1)NC(=O)[C@@H](N)[C@@H](C)O)[C@@H](C)CC)C(=O)N[C@@H](C)C(=O)N[C@@H](CCSC)C(=O)N[C@@H](CC(=O)O)C(=O)N[C@@H](CCCCN)C(=O)N[C@H](C(=O)N[C@@H](Cc1c[nH]cn1)C(=O)N[C@@H](CCC(N)=O)C(=O)N[C@@H](CCC(N)=O)C(=O)N[C@@H](CC(=O)O)C(=O)N[C@@H](Cc1ccccc1)C(=O)N[C@H](C(=O)N[C@@H](CC(N)=O)C(=O)N[C@@H](Cc1c[nH]c2ccccc12)C(=O)N[C@@H](CC(C)C)C(=O)N[C@@H](CC(C)C)C(=O)N[C@@H](C)C(=O)N[C@@H](CCC(N)=O)C(=O)N[C@@H](CCCCN)C(=O)NCC(=O)N[C@@H](CCCCN)C(=O)O)C(C)C)[C@@H](C)CC) [AT456]	60	85	-7.2
TFISDYKIAMDKIHQQDFVNWLLAQKG (HELM PEPTIDE1{T.F.I.S.D.Y.K.I.A.M.D.K.I.H.Q.Q.D.F.V.N.W.L.L.A.Q.K.G}|PEPTIDE2{[O=C(O)CCCCCCCCCCCCCCC(=O)[*:2]].[gGlu]}$PEPTIDE1,PEPTIDE2,7:R3-2:R2$$$V2.0; N-terminus assumed; SMILES CC[C@H](C)[C@H](NC(=O)[C@H](CCCCNC(=O)CC[C@H](NC(=O)CCCCCCCCCCCCCCC(=O)O)C(=O)O)NC(=O)[C@H](Cc1ccc(O)cc1)NC(=O)[C@H](CC(=O)O)NC(=O)[C@H](CO)NC(=O)[C@@H](NC(=O)[C@H](Cc1ccccc1)NC(=O)[C@@H](N)[C@@H](C)O)[C@@H](C)CC)C(=O)N[C@@H](C)C(=O)N[C@@H](CCSC)C(=O)N[C@@H](CC(=O)O)C(=O)N[C@@H](CCCCN)C(=O)N[C@H](C(=O)N[C@@H](Cc1c[nH]cn1)C(=O)N[C@@H](CCC(N)=O)C(=O)N[C@@H](CCC(N)=O)C(=O)N[C@@H](CC(=O)O)C(=O)N[C@@H](Cc1ccccc1)C(=O)N[C@H](C(=O)N[C@@H](CC(N)=O)C(=O)N[C@@H](Cc1c[nH]c2ccccc12)C(=O)N[C@@H](CC(C)C)C(=O)N[C@@H](CC(C)C)C(=O)N[C@@H](C)C(=O)N[C@@H](CCC(N)=O)C(=O)N[C@@H](CCCCN)C(=O)NCC(=O)O)C(C)C)[C@@H](C)CC) [AT455]	31	95	-7.5
